Assay results taken from US20200308281A1 (KITE PHARMA, published 2020).

Target: T1, alpha chain of the constant region of the murine T cell receptor (TCR) (murine, UniProt P01849 1-136)
T1 construct: Endogenous protein in mouse spleen tissue; The variable parts and the beta chains are those of the tissue's T cells and are not defined; also called mouse spleen TCR
T1 TCR alpha (looked up): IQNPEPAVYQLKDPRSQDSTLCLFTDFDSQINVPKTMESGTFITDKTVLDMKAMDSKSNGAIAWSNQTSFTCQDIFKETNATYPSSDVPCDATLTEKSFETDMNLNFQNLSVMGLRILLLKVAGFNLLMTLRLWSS
Test: immunohistochemistry on FFPE section of mouse spleen
Method: The candidate antibodies were screened for their utility in immunohistochemistry. Specimens were sectioned at 4 micron thickness, mounted onto positive-charged glass slides, dried, baked, deparaffinized, and rehydrated. Following rehydration, tissue sections were incubated in Envision Peroxidase (Dako) for 5 minutes to quench endogenous peroxidase. Sections underwent heat-induced epitope retrieval using high-pH buffer for 40 minutes in a water bath set to 95° C. followed by a rinse in neutral buffer. Slides were incubated with antibody or negative reagent control diluted in diluent for 30 minutes. Slides were then rinsed twice in buffer for 5 minutes each followed by detection using the Envision+Rabbit HRP Detection Kit (Dako) for 30 minutes. Slides were rinsed twice with buffer for 5 minutes each followed by incubation with DAB (Dako) for 5 minutes. Slides were rinsed with water, counterstained with hematoxylin, blued in ammonia water, dehydrated through graded alcohols, cleared in xylene, and coverslipped. As shown in FIGS. 5A-E, E7 TCR-transduced, Peripheral blood mononuclear cells (PBMCs) transduced with the MAGE A3/A6 TCR, and FFPE section of mouse spleen stain with the exemplary mAb clone 39 (KIP-8) antibody described herein. […] Normal mouse spleen sections stain with KIP-8 further indicating its specificity for the murine alpha constant sequence.

B1: KIP-8 antibody (mAb clone 39; Clone 39-4) (antibody, V domains shown)
VH: QEQLVESGGGLVQPEGSLTLTCTASGFDLGNNWIHWVRHAPGKGLEWIACVSGSSGNIYYATWAKGRFTMSKASSTTVTLRMTSLTAADTATYFCARGWNLWGPGTLVTVSS
VL: AQVLTQTPASVSAAVGGTVTINCQASQSVYSSNLLTWYQKKPGQPPKLLIYEASKLPSGIPSRFSGSGSGTQFTLTISDVQCADAATYYCLGIYDCVLADCQAFGGGTEVVVKG
notes: Rabbit monoclonal antibody; also called clone 39 (KIP-8); Clone 39-4 vh1
  binding result: binds
